Reference: patent US20050064507

Tests used:
[1] = molecular target: T1, MARCKS peptide KKKRFSFKKSFKLSGFSFKK (SEQ ID NO:111) (not fully specified)
T1 chain: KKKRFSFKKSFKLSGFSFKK

[2] = molecular target: T2, plectin peptide PLKEKKRERKTSSKSSVRKR (SEQ ID NO:125) (not fully specified)
T2 chain: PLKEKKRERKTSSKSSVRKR

[3] = molecular target: T3, PARIS1 peptide EYLERRASRRRAV (SEQ ID NO:89) (not fully specified)
T3 chain: EYLERRASRRRAV

[4] = molecular target: T4, PPP1R14A peptide QKRHARVTVKYDRRE (SEQ ID NO:107) (not fully specified)
T4 chain: QKRHARVTVKYDRRE

[5] = molecular target: T5, PLD1 peptide KYKAFIRIPIPTRRHTFRRQ (SEQ ID NO:161) (not fully specified)
T5 chain: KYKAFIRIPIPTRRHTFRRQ

[6] = molecular target: T6, MARCKS peptide KKRFSFKKSFKLSGFSFKKN (SEQ ID NO:123) (not fully specified)
T6 chain: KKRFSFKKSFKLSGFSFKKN

[7] = molecular target: T7, SDPR peptide EKIKRSSLKKVDSLKK (SEQ ID NO:104) (not fully specified)
T7 chain: EKIKRSSLKKVDSLKK

[8] = molecular target: T8, Myt1 kinase peptide PPRTPGWHQLQPRRVSFRGE (SEQ ID NO:163) (not fully specified)
T8 chain: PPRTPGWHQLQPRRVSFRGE

[9] = molecular target: T9, ARHGAP4 peptide AGPLRKSSLKKGGRL (SEQ ID NO:98) (not fully specified)
T9 chain: AGPLRKSSLKKGGRL

[10] = molecular target: T10, beta adducin peptide PSKSPSKKKKKFRTPSFLKK (SEQ ID NO:137) (not fully specified)
T10 chain: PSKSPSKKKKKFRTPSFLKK

[11] = molecular target: T11, PSCD2 peptide AARKKRISVKKKQEQ (SEQ ID NO:93) (not fully specified)
T11 chain: AARKKRISVKKKQEQ

[12] = molecular target: T12, splicing factor, arginine/serine-rich 4 peptide RSRSRSRSKSKDKRKSRKRS (SEQ ID NO:134) (not fully specified)
T12 chain: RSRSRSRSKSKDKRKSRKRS

[13] = molecular target: T13, ARHGAP6 peptide SAQITIPKDGQKRKKSLRKK (SEQ ID NO:156) (not fully specified)
T13 chain: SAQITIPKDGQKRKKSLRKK

[14] = molecular target: T14, NIK peptide WKGKRRSKARKKRK (SEQ ID NO:131) (not fully specified)
T14 chain: WKGKRRSKARKKRK

[15] = molecular target: T15, nuclear RNA export factor 3 peptide VRYTPYTISPYNRKGSFRKQ (SEQ ID NO:143) (not fully specified)
T15 chain: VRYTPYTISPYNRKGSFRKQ

[16] = molecular target: T16, MGC2941 peptide RPTPGDGEKRSRIKKSKKRK (SEQ ID NO:139) (not fully specified)
T16 chain: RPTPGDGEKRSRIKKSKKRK

[17] = molecular target: T17, ARHGAP6 peptide DGQKRKKSLRKKLD (SEQ ID NO:92) (not fully specified)
T17 chain: DGQKRKKSLRKKLD

[18] = molecular target: T18, DGKZ peptide KKKKRASFKRKSSKKG (SEQ ID NO:77) (not fully specified)
T18 chain: KKKKRASFKRKSSKKG

[19] = molecular target: T19, AF15q14 peptide GFLNEPLSSKSQRRKSLKLK (SEQ ID NO:132) (not fully specified)
T19 chain: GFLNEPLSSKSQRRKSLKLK

[20] = molecular target: T20, dag kinase iota peptide NRKKKRTSFKRKA (SEQ ID NO:115) (not fully specified)
T20 chain: NRKKKRTSFKRKA

[21] = molecular target: T21, Urotensin-2 receptor peptide LYARLARAYRRSQRASFKRA (SEQ ID NO:159) (not fully specified)
T21 chain: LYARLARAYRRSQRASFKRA

[22] = molecular target: T22, … peptide KKPFKLSGLSFKRNRKE (SEQ ID NO:88) (not fully specified)
T22 chain: KKPFKLSGLSFKRNRKE

[23] = molecular target: T23, MAP3K14 peptide WKGKRRSKARKKRK (SEQ ID NO:100) (not fully specified)
T23 chain: WKGKRRSKARKKRK

[24] = molecular target: T24, ERN1 peptide KLAVGRHSFSRRSGV (SEQ ID NO:94) (not fully specified)
T24 chain: KLAVGRHSFSRRSGV

[25] = molecular target: T25, PSCDBP peptide LSSMFGTLPRKSRKGSVRKQ (SEQ ID NO:144) (not fully specified)
T25 chain: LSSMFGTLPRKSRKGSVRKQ

[26] = molecular target: T26, gravin peptide KKFFTQGWAGWRKKTSFRKP (SEQ ID NO:154) (not fully specified)
T26 chain: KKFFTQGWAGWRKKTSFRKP

[27] = molecular target: T27, PRKCM peptide VHYTSKDTLRKRHYWR (SEQ ID NO:91) (not fully specified)
T27 chain: VHYTSKDTLRKRHYWR

[28] = molecular target: T28, ankyrin R peptide DLIEGRKGAQIVKRASLKRG (SEQ ID NO:152) (not fully specified)
T28 chain: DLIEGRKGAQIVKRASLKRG

[29] = molecular target: T29, CREB1 peptide EILSRRPSYRKILND (SEQ ID NO:106) (not fully specified)
T29 chain: EILSRRPSYRKILND

[30] = molecular target: T30, KCNH2 peptide RQRKRKLSFRRRTDKD (SEQ ID NO:86) (not fully specified)
T30 chain: RQRKRKLSFRRRTDKD

[31] = molecular target: T31, pleckstrin 1 peptide KAIKAIEGGQKFARKSTRRS (SEQ ID NO:126) (not fully specified)
T31 chain: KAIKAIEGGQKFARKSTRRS

B1: PKC-zeta (protein)
chain: MPSRTGPKMEGSGGRVRLKAHYGGDIFITSVDAATTFEELCEEVRDMCRLHQQHPLTLKWVDSEGDPCTVSSQMELEEAFRLARQCRDEGLIIHVFPSTPEQPGLPCPGEDKSIYRRGARRWRKLYRANGHLFQAKRFNRRAYCGQCSERIWGLARQGYRCINCKLLVHKRCHGLVPLTCRKHMDSVMPSQEPPVDDKNEDADLPSEETDGIAYISSSRKHDSIKDDSEDLKPVIDGMDGIKISQGLGLQDFDLIRVIGRGSYAKVLLVRLKKNDQIYAMKVVKKELVHDDEDIDWVQTEKHVFEQASSNPFLVGLHSCFQTTSRLFLVIEYVNGGDLMFHMQRQRKLPEEHARFYAAEICIALNFLHERGIIYRDLKLDNVLLDADGHIKLTDYGMCKEGLGPGDTTSTFCGTPNYIAPEILRGEEYGFSVDWWALGVLMFEMMAGRSPFDIITDNPDMNTEDYLFQVILEKPIRIPRFLSVKASHVLKGFLNKDPKERLGCRPQTGFSDIKSHAFFRSIDWDLLEKKQALPPFQPQITDDYGLDNFDTQFTSEPVQLTPDDEDAIKRIDQSEFEGFEYINPLLLSTEESV
in vitro phosphorylation (% of best substrate) [1]: 9 | in vitro phosphorylation, 1 uM peptide (% of best substrate) [2]: 13 | in vitro phosphorylation, 10 uM peptide (% of best substrate) [2]: 12 | in vitro phosphorylation (% of best substrate) [3]: 14 | in vitro phosphorylation (% of best substrate) [4]: 1 | in vitro phosphorylation, 1 uM peptide (% of best substrate) [5]: 15 | in vitro phosphorylation, 10 uM peptide (% of best substrate) [5]: 9 | in vitro phosphorylation, 1 uM peptide (% of best substrate) [6]: 20 | in vitro phosphorylation, 10 uM peptide (% of best substrate) [6]: 20 | in vitro phosphorylation (% of best substrate) [7]: 3 | in vitro phosphorylation, 1 uM peptide (% of best substrate) [8]: 7 | in vitro phosphorylation, 10 uM peptide (% of best substrate) [8]: 26 | in vitro phosphorylation (% of best substrate) [9]: 4 | in vitro phosphorylation, 1 uM peptide (% of best substrate) [10]: 4 | in vitro phosphorylation, 10 uM peptide (% of best substrate) [10]: 5 | in vitro phosphorylation (% of best substrate) [11]: 1 | in vitro phosphorylation, 1 uM peptide (% of best substrate) [12]: 5 | in vitro phosphorylation, 10 uM peptide (% of best substrate) [12]: 5 | in vitro phosphorylation, 1 uM peptide (% of best substrate) [13]: 15 | in vitro phosphorylation, 10 uM peptide (% of best substrate) [13]: 44 | in vitro phosphorylation, 1 uM peptide (% of best substrate) [14]: 7 | in vitro phosphorylation, 10 uM peptide (% of best substrate) [14]: 6 | in vitro phosphorylation, 1 uM peptide (% of best substrate) [15]: 22 | in vitro phosphorylation, 10 uM peptide (% of best substrate) [15]: 79 | in vitro phosphorylation, 1 uM peptide (% of best substrate) [16]: 1 | in vitro phosphorylation, 10 uM peptide (% of best substrate) [16]: 1 | in vitro phosphorylation (% of best substrate) [17]: 2 | in vitro phosphorylation (% of best substrate) [18]: 60 | in vitro phosphorylation, 1 uM peptide (% of best substrate) [19]: 19 | in vitro phosphorylation, 10 uM peptide (% of best substrate) [19]: 61 | in vitro phosphorylation, 1 uM peptide (% of best substrate) [20]: 11 | in vitro phosphorylation, 10 uM peptide (% of best substrate) [20]: 10 | in vitro phosphorylation, 1 uM peptide (% of best substrate) [21]: 25 | in vitro phosphorylation, 10 uM peptide (% of best substrate) [21]: 41 | in vitro phosphorylation (% of best substrate) [22]: 4 | in vitro phosphorylation (% of best substrate) [23]: 8 | in vitro phosphorylation (% of best substrate) [24]: 10 | in vitro phosphorylation, 1 uM peptide (% of best substrate) [25]: 16 | in vitro phosphorylation, 10 uM peptide (% of best substrate) [25]: 54 | in vitro phosphorylation, 1 uM peptide (% of best substrate) [26]: 27 | in vitro phosphorylation, 10 uM peptide (% of best substrate) [26]: 23 | in vitro phosphorylation (% of best substrate) [27]: 12 | in vitro phosphorylation, 1 uM peptide (% of best substrate) [28]: 4 | in vitro phosphorylation, 10 uM peptide (% of best substrate) [28]: 9 | in vitro phosphorylation (% of best substrate) [29]: 15 | in vitro phosphorylation (% of best substrate) [30]: 28 | in vitro phosphorylation, 1 uM peptide (% of best substrate) [31]: 46 | in vitro phosphorylation, 10 uM peptide (% of best substrate) [31]: 56
